Source: patent US20200207829

Experiments:
TMt-NLS-dCas9VP64 = target: T1, TMt-NLS-dCas9VP64
T1 chain: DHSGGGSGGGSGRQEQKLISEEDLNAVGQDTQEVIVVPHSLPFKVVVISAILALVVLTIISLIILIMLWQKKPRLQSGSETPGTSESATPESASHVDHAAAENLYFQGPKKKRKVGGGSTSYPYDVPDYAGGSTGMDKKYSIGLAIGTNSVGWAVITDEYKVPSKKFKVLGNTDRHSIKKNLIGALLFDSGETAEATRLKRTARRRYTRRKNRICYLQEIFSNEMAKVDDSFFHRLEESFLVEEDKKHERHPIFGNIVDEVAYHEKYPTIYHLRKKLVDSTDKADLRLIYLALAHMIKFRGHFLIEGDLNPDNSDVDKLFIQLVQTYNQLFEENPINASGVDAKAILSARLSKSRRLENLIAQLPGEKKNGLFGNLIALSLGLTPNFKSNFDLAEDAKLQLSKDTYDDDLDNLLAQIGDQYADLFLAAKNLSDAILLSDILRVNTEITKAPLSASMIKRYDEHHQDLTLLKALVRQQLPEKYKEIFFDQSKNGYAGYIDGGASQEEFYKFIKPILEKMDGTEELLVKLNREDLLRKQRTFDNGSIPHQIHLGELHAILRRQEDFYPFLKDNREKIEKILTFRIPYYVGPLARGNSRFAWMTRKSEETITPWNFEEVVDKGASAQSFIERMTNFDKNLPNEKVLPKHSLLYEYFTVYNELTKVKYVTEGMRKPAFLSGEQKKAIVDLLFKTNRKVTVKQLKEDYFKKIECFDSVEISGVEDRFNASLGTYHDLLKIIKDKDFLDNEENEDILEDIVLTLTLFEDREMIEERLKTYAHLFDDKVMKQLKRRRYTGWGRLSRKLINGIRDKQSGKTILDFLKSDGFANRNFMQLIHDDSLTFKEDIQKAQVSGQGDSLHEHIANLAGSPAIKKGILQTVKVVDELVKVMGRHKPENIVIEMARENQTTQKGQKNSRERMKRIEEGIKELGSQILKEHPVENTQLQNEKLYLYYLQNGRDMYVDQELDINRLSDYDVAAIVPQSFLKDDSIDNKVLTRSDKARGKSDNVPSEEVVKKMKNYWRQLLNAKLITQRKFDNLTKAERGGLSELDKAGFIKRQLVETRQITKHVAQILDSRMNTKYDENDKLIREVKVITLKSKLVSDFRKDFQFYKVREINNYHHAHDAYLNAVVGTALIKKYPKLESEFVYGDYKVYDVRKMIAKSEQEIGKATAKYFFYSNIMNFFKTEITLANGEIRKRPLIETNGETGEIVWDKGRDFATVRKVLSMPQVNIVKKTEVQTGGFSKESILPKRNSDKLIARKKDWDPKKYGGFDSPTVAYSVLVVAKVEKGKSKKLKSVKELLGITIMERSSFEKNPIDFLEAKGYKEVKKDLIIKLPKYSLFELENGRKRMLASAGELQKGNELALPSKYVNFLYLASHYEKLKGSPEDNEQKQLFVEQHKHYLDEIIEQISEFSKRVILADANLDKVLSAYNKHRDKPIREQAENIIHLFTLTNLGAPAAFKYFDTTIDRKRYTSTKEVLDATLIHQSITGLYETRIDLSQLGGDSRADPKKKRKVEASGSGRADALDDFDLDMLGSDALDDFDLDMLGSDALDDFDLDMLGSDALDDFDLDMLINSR

B1: TEV protease (protein)
chain: MHHHHHHHHHGESLFKGPRDYNPISSTICHLTNESDGHTTSLYGIGFGPFIITNKHLFRRNNGTLLVQSLHGVFKVKNTTTLQQHLIDGRDMIIIRMPKDFPPFPQKLKFREPQREERICLVTTNFQTKSMSSMVSDTSCTFPSSDGIFWKHWIQTKDGQCGSPLVSTRDGFIVGIHSASNFTNTNNYFTSVPKNFMELLTNQEAQQWVSGWRLNADSVLWGGHKVFMVKPEEPFQPVKEATQLMNRRRRP
anti-HA immunofluorescence, localisation of dCas9-VP64 (TMt-NLS-dCas9VP64): co-expression of TEV protease resulted in highly efficient release of dCas9-VP64 from the membrane tether and subsequent nuclear localization | EYFP activation score (TMt-NESΔTCS-dCas9VP64): did not show any activity above baseline levels
